Results reported in patent US20060253917A1 (published 2006).

Experiments:
OsFDRMADS6 aa 1-186 = molecular target: T1, OsFDRMADS6 aa 1-186 (Oryza sativa, UniProt P0C5B1 1-186); assay: Y2H; output trait library
T1 construct: prey, AD fusion; also called PN19766
T1 sequence: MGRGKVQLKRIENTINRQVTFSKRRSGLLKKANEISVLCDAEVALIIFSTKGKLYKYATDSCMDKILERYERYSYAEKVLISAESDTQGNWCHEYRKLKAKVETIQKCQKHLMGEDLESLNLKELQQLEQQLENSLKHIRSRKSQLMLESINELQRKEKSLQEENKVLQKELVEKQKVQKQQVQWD
Outline: (§1)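 Protein-protein interactions were detected in an automated, high-throughput yeast two-hybrid assay from Myriad Genetics Inc. (Salt Lake City, Utah), with a bait clone encoding a defined amino-acid fragment of a rice protein screened against the input trait or output trait rice prey library. Interacting proteins were identified by BLAST comparison of the encoding sequences of retrieved prey clones against databases.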

OsMADS45 aa 75-249 = molecular target: T2, OsMADS45 aa 75-249 (Oryza sativa, UniProt P0C5B0 75-249); assay: Y2H; output trait library
T2 construct: prey, AD fusion; also called PN20231
T2 sequence: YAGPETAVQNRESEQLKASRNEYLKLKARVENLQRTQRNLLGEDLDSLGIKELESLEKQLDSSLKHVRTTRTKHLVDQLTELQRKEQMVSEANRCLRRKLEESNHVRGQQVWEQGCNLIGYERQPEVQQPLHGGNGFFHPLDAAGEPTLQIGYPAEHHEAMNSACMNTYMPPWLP
Outline: as §1

OsMADS5 aa 109-225 = molecular target: T3, OsMADS5 aa 109-225 (Oryza sativa, UniProt A2Y9P0 109-225); assay: Y2H; output trait library
T3 construct: prey, AD fusion; also called PN20770
T3 sequence: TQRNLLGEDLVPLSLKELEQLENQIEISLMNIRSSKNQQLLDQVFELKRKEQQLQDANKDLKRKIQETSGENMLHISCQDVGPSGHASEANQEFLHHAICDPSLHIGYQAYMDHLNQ
Outline: as §1

OsMADS8 aa 107-248 = molecular target: T4, OsMADS8 aa 107-248 (Oryza sativa, UniProt Q9SAR1 107-248); assay: Y2H; output trait library
T4 construct: prey, AD fusion; also called PN20778; O. sativa MADS box protein MADS8
T4 sequence: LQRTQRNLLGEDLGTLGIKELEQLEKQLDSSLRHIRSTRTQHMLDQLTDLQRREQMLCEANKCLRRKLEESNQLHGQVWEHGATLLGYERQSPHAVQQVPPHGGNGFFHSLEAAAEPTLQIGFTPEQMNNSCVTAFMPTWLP
Outline: as §1

OsMADS1 aa 95-257 = molecular target: T5, OsMADS1 aa 95-257 (Oryza sativa, UniProt A2XDY1 95-257); assay: Y2H; output trait library
T5 construct: prey, AD fusion; also called PN19788
T5 sequence: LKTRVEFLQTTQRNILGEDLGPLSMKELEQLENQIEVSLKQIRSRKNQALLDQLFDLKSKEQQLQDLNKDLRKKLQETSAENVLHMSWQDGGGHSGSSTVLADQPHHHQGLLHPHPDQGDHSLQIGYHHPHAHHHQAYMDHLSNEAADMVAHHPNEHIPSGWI
Outline: as §1

OsFDRMADS8 aa 53-233 = molecular target: T6, OsFDRMADS8 aa 53-233 (Oryza sativa, UniProt A2Z9Q7 53-233); assay: Y2H; output trait library
T6 construct: prey, AD fusion; also called PN20698
T6 sequence: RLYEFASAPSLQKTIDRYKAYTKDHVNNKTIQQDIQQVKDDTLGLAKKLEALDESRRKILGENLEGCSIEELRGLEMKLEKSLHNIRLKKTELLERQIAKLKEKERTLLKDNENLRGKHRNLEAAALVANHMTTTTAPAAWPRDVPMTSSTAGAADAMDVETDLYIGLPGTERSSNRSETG
Outline: as §1

OsMADS6 aa 116-250 = molecular target: T7, OsMADS6 aa 116-250 (Oryza sativa, UniProt Q6EU39 116-250); assay: Y2H; output trait library
T7 construct: prey, AD fusion; also called PN20233
T7 sequence: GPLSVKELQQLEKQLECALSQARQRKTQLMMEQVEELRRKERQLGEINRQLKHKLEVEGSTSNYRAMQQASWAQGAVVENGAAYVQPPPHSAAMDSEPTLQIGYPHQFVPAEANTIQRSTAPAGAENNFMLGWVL
Outline: as §1

OsMADS8 aa 75-248 = molecular target: T8, OsMADS8 aa 75-248 (Oryza sativa, UniProt Q9SAR1 75-248); assay: Y2H; input trait library
T8 construct: prey, AD fusion; also called PN20778
T8 sequence: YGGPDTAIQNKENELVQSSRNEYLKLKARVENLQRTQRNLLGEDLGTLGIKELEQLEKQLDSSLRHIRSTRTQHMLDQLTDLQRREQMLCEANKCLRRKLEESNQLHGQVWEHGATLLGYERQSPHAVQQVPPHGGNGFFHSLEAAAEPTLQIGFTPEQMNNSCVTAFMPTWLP
Outline: as §1

OsMADS17 aa 106-249 = molecular target: T9, OsMADS17 aa 106-249 (Oryza sativa, UniProt Q7XUN2 106-249); assay: Y2H; input trait library
T9 construct: prey, AD fusion; also called PN20914; O. sativa MADS box transcription factor MADS17
T9 sequence: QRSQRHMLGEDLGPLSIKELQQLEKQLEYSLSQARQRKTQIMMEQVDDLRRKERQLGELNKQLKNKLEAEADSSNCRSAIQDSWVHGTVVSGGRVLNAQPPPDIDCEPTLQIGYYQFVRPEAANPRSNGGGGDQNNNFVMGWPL
Outline: as §1

OsMADS1 aa 100-231 = molecular target: T10, OsMADS1 aa 100-231 (Oryza sativa, UniProt A2XDY1 100-231); assay: Y2H; input trait library
T10 construct: prey, AD fusion; also called PN19788
T10 sequence: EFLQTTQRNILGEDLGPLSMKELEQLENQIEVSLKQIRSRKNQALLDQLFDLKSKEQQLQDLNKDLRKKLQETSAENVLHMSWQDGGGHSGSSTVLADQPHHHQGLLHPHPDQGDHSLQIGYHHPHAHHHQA
Outline: as §1

OsPN22834 aa 112-278 = molecular target: T11, OsPN22834 aa 112-278 (Oryza sativa, UniProt Q01IK0 110-276); assay: Y2H; input trait library
T11 construct: prey, AD fusion; also called Novel protein PN22834, similar to Oshox6, fragment
T11 sequence: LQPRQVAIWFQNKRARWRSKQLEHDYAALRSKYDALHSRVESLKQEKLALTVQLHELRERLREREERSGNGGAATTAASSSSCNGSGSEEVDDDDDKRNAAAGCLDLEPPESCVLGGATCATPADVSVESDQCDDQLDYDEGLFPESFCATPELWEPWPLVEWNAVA
Outline: as §1

OsMADS45 aa 96-249 = molecular target: T12, OsMADS45 aa 96-249 (Oryza sativa, UniProt P0C5B0 96-249); assay: Y2H; input trait library
T12 construct: prey, AD fusion; also called PN20231
T12 sequence: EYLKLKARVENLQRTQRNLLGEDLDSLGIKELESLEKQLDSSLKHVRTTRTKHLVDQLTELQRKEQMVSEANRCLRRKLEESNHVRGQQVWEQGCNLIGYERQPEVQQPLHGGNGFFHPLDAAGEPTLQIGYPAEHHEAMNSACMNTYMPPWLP
Outline: as §1

Measured: binding result

B1: OsRAP1B aa 1-247 (other)
chain: MGRGKVQLKRIENKINRQVTFSKRRSGLLKKANEISVLCDAEVALIIFSTKGKLYEYATDSCMDKILERYERYSYAEKVLISAESDTQGNWCHEYRKLKAKVETIQKCQKHLMGEDLESLNLKELQQLEQQLENSLKHIRSRKSQLMLESINELQRKEKSLQEENKVLQKELVEKQKVQKQQLQWDQTQPQTISSSSSFMMREALPTTNISNYPAAAGERIEDVPAGQPQHVRIGLPPWMLSHING
notes: bait, Gal4 DBD fusion; also called PN20232
binds: all assays above
